Target: POLQ-FLAG (DNA polymerase θ) (human, UniProt O75417 1-2590)
Experiment: co-IP

POLQ-FLAG (DNA polymerase θ), sequence (O75417 whole entry): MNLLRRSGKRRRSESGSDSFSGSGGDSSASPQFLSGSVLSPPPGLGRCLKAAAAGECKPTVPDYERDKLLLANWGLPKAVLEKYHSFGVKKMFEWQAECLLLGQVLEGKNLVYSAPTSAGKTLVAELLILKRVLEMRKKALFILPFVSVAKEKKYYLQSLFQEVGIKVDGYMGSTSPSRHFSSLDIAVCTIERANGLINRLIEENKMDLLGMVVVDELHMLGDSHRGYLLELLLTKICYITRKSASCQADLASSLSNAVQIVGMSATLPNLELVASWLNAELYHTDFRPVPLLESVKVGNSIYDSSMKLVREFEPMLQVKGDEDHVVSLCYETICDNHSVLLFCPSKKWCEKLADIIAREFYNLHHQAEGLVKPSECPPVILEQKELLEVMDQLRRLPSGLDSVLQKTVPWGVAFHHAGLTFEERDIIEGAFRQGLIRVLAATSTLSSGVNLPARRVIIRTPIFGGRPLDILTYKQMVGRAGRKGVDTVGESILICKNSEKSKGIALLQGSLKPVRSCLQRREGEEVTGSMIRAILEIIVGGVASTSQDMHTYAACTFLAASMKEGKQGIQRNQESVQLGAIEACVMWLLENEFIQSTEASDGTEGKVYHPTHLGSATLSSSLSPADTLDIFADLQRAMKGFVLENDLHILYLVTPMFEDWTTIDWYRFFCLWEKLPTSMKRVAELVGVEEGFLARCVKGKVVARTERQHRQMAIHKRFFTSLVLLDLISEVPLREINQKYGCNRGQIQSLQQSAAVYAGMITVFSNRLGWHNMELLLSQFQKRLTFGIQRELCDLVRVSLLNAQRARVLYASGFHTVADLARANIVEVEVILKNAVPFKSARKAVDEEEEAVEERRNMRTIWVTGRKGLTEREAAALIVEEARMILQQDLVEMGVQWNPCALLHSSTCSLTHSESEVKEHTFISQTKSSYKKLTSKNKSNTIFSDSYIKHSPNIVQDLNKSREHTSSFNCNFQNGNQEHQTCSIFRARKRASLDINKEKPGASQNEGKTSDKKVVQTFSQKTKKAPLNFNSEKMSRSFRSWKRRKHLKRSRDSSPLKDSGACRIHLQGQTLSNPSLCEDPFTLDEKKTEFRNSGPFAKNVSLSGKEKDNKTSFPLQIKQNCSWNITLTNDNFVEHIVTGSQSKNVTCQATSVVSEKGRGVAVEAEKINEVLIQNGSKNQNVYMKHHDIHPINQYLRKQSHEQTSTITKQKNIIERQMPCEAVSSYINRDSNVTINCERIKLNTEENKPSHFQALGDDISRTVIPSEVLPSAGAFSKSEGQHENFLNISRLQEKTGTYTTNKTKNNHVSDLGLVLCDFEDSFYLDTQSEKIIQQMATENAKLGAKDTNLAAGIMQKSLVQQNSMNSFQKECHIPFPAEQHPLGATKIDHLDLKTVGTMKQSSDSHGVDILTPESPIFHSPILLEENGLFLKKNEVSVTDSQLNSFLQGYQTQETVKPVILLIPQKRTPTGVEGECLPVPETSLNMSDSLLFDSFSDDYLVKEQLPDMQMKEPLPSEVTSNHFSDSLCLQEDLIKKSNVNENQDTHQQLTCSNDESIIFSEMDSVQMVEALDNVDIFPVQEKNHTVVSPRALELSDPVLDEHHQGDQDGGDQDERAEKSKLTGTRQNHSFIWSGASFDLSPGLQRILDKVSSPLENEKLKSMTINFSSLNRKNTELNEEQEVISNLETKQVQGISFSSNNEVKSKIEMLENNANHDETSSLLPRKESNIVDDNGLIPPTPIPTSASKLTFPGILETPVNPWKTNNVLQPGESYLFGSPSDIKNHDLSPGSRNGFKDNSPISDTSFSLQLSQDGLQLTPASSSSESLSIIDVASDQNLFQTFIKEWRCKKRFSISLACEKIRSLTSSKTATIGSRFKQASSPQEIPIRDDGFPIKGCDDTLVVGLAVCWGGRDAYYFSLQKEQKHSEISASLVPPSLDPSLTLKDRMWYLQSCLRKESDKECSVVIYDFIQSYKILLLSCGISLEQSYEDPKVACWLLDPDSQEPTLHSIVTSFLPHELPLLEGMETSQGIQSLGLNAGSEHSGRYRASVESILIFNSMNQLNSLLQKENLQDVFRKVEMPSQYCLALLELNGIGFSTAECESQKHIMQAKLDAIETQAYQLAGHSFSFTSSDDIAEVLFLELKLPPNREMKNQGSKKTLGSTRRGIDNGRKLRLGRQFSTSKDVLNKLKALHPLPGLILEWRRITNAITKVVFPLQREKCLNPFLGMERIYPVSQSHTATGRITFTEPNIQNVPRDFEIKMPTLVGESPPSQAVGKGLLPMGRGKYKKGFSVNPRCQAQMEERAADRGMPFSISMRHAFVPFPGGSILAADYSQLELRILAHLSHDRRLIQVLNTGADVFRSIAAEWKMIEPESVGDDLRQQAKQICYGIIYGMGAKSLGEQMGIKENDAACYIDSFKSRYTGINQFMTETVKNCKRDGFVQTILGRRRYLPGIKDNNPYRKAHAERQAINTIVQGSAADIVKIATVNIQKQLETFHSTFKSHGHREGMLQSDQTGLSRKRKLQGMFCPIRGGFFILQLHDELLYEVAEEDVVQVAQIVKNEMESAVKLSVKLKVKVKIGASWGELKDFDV

B1: MRE11 (natural protein, human (endogenous in U2OS), UniProt P49959 1-708, looked up)
chain: MSTADALDDENTFKILVATDIHLGFMEKDAVRGNDTFVTLDEILRLAQENEVDFILLGGDLFHENKPSRKTLHTCLELLRKYCMGDRPVQFEILSDQSVNFGFSKFPWVNYQDGNLNISIPVFSIHGNHDDPTGADALCALDILSCAGFVNHFGRSMSVEKIDISPVLLQKGSTKIALYGLGSIPDERLYRMFVNKKVTMLRPKEDENSWFNLFVIHQNRSKHGSTNFIPEQFLDDFIDLVIWGHEHECKIAPTKNEQQLFYISQPGSSVVTSLSPGEAVKKHVGLLRIKGRKMNMHKIPLHTVRQFFMEDIVLANHPDIFNPDNPKVTQAIQSFCLEKIEEMLENAERERLGNSHQPEKPLVRLRVDYSGGFEPFSVLRFSQKFVDRVANPKDIIHFFRHREQKEKTGEEINFGKLITKPSEGTTLRVEDLVKQYFQTAEKNVQLSLLTERGMGEAVQEFVDKEEKDAIEELVKYQLEKTQRFLKERHIDALEDKIDEEVRRFRETRQKNTNEEDDEVREAMTRARALRSQSEESASAFSADDLMSIDLAEQMANDSDDSISAATNKGRGRGRGRRGGRGQNSASRGGSQRGRADTGLETSTRSRNSKTAVSASRNMSIIDAFKSTRQQPSRNVTTKNYSEVIEVDESDVEEDIFPTTSKTDQRWSSTSSSKIMSQSQVSKGVDFESSEDDDDDPFMNTSSLRRNRR
fold level in POLQ-FLAG IP, BRCA2-deficient over BRCA2-proficient cells: ~4 fold

Reference: article PMC7397735 (NAR Cancer, 2020)
